From patent US20200277373A1, “ANTI-TREM2 ANTIBODIES AND METHODS OF USE THEREOF” (Denali Therapeutics Inc., priority 2017, published 2020)

T1: hTREM2 (Homo sapiens, UniProt Q9NZC2)
T1 construct: The ecto domain (residues 19-172) of TREM2 (UniProtKB—Q9NZC2); secretion signal of mouse Ig kappa chain V-III (P01661 aa 1-20) (N); made in house; host or cells: Expi293F
T1 sequence (Q9NZC2 19-172): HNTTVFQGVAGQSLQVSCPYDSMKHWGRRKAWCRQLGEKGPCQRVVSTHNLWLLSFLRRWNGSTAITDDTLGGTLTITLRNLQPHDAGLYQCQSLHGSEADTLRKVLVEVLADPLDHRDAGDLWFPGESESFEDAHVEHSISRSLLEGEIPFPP

T2: TREM2 (Homo sapiens, UniProt Q9NZC2)
T2 construct: macrophage cells that endogenously express TREM2; endogenous in cells; host or cells: primary human monocyte-derived macrophages from donor blood
T2 sequence (Q9NZC2 19-230): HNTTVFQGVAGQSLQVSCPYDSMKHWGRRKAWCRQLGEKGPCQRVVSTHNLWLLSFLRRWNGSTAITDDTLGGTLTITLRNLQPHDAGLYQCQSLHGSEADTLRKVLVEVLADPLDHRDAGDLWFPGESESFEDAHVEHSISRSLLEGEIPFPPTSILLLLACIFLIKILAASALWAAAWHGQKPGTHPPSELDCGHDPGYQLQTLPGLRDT


Key:
[1] = molecular target: T3, soluble TREM2 (sTREM2) (Homo sapiens, UniProt Q9NZC2); assay: Soluble TREM2 (TREM2 shedding) assay in HEK293 TREM2/DAP12 cells; format: cell-based; set-up: key to STREM2: NC = no change; −− = reduced sTREM2; ++ = increased sTREM2; settings: change in sTREM2 levels
T3 construct: expressed in transfected cells
T3 sequence (O43914 22-113 partner, one chain of several): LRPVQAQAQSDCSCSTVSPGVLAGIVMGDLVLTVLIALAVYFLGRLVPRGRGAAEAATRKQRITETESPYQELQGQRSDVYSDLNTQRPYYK
Procedure: HEK293 cells stably expressing human TREM2 and DAP12 were plated onto 96-well plates pre-coated with poly-D-lysine 4-16 hours prior to antibody treatment. Antibody supernatants or control antibodies were diluted into fresh complete media and added onto cells in triplicate. Cells were incubated with antibody containing media for 18 hours prior to removal of the cell supernatant for assay by TREM2 ELISA. Samples and standards were diluted 1:10 into blocking buffer (3% BSA/TBST) in the assay plate. Briefly, MSD small spot streptavidin plates were coated with biotinylated anti-hTREM2 polyclonal antibody (R&D Systems) overnight at 4° C. or 1 hour at room temperature. Plates were then blocked overnight at 4° C., or 1 hour at room temperature, with blocking buffer, 3% BSA/TBST. Plates were washed three times with TBST in a Biotek plate washer (used for all washes) prior to addition of diluent (blocking buffer) and denatured supernatants from cell culture. A TREM2-His protein diluted in 3% BSA/TBST was used as a standard for absolute quantification. Following 1 hour incubation at room temperature, plates were washed with TBST. The primary detection antibody, sulfo-tagged goat anti-human TREM2 (R&D Systems), diluted in 3% BSA/TBST was added and incubated for 1 hour at room temperature. After washing with TBST, MSD plates were developed using 2×MSD read buffer T, followed by detection using an MSD Sector plate reader. MSD values were converted to absolute quantities of sTREM2 by fitting a standard curve using Prism 7.0 software (Graphpad). Modulation of TREM2 shedding was represented as a ratio to cells cultured with no specific TREM2 antibody in the media.

[2] = tested on: human macrophages; assay: Cell survival assay, human monocyte-derived macrophages, restricted or no M-CSF, CellTiter Glo; format: cell-based; settings: plate coated antibody, 5 ng/mL or no M-CSF, day 6
Procedure: TREM2 can support microglia energy homeostasis (Ulland et al., Cell, 2017, 170:649-663). […] To understand if enhancing TREM2 activity with TREM2 agonistic antibodies is sufficient for macrophage/microglia survival under limited M-CSF conditions, human macrophage differentiation and survival studies were performed using antibodies as described herein. Human monocytes isolated from peripheral blood were incubated with 5 ng/mL M-CSF in the presence of titrated concentrations of plate coated TREM2 antibodies or isotype controls. On day 6 cell viability was determined by CellTiter Glo viability assay.

[3] = tested on: human macrophages; assay: Signaling pathway Alpha-LISA (pSYK, pERK1/2, pGSK3-beta, pAKT) in human macrophages; format: cell-based; settings: 15 minutes
Procedure: Anti-TREM2 antibodies were characterized for activation of several signaling pathways, SYK, ERK1/2, AKT and GSK3-beta. Human macrophages differentiated from peripheral monocytes were plated in 96-well plates at a density of 100,000 cell/well. The assay was tested in three conditions (0%, 0.5%, and 10% FBS in the media) for 3 hours. Cells were stimulated with the antibody RS9.F6, 24B4.A1, 8A11.B1, 3D3.A1, 54C2.A1, isotype control IgG2ak, rat anti-TREM2 from R&D, isotype control rat IgG2b, or no treatment (NT) for 15 minutes. The cell lysates were measured for p-Y525/526-SYK, p-T202/Y204-ERK1/2, p-S9-GSK3-beta, and p-S473-AKT using Alpha-LISA kits (Perkin Elmer). […] The antibodies stimulated p-GSK signal moderately (FIG. 6C).

[4] = molecular target: T4, TREM2 (Homo sapiens, UniProt Q9NZC2); assay: FACS binning on human TREM2-HEK cells (competition with R&D antibody); format: binding; settings: epitope bin, 100 nM antibody
T4 construct: expressed in transfected cells
Procedure: HEK293 overexpressing human TREM2 (H6) were harvested by 0.05% trypsin and incubated at 37° C. incubator for 2 hours for surface TREM2 recovery. After incubation, cells were washed with 1×PBS and FACS buffer (PBS+0.5% BSA) with human Trustain FcX solution (Biolegend, Cat #422302) was added at a density of 10^6/mL. Cells were seeded at 100,000 cells per well in a 96-well round-bottom and incubated 20 minutes at room temperature. After incubation, anti-TREM2 antibodies (100 nM) were added to the cells and the cells were incubated for 45 minutes on ice. After incubation, rat anti-h/mTREM2-APC antibody (1:100, R&D, Cat # FAB17291A) was added to the cells, and the cells were incubated for 30 minutes on ice. After incubation, cells were washed with FACS buffer three times and resuspended in 10 μL FACS buffer, then analyzed by flow cytometry (BD FACSCanto II, San Jose, Calif.). 20,000 events were obtained for each sample. The ability to compete with R&D antibody was determined by MFI analysis compared to isotype or buffer control wells.
T4 sequence (O43914 22-113 partner, one chain of several): as above

[5] = molecular target: T1, hTREM2; assay: Octet binning (competition with R&D antibody on biotinylated TREM2-His); format: binding; settings: epitope bin, 100 nM
Procedure: Competition with R&D antibody was done by Octet Red using biotinylated human Trem2-His protein generated in house. Biotinylated human TREM2-His protein was captured on a streptavidin tip, and the tip was then incubated in either 100 nM of R&D Ab or buffer for 3 minutes, followed by incubation for 3 minutes in 100 nM of testing hybridoma. The difference of hybridoma binding curve with or without pre-binding to R&D antibody was analyzed to determine the epitope.

[6] = molecular target: T2, TREM2; assay: TREM2 pSyk antagonist assay on human macrophages (antibody pre-incubation, then liposomes); format: cell-based; settings: FIGS. 9C-9D, 30 nM antibody
Procedure: Human macrophages were differentiated from donor blood using a human monocyte enrichment cocktail (Stem Cell Technologies) and culturing monocytes with human mCSF for five days in macrophage media (RPMI+10% Hyclone FBS+Glutamax+Pen/Strep+non-essential amino acids+sodium pyruvate). On the fifth day, the human macrophages were scraped from the flasks and were re-plated at 100,000 cells/well on a 96-well poly-D-lysine-coated plate in the macrophage media (without mCSF). The cells were incubated for 24 hours to adhere, then the media was removed.
Antibodies diluted in RPMI alone were immediately added to the cells, and allowed to incubate for 30 minutes at 37° C. The antibodies were then removed. Lipid vesicles comprised of 70% DOPC and 30% POPS (made according to the procedure for making vesicles described above) in HBSS were added to the cells and incubated […] at 37° C. The liposome/antibody solution was removed, and 35 μL lysis buffer (Cell Signaling Technologies, CST) was added using the liquid handler. The lysate was then incubated at 4° C. for 30 minutes, then either frozen at −80° C. or immediately carried forward to a pSyk AlphaLISA assay as described above.

[7] = molecular target: T1, hTREM2; assay: Biacore T200 binding kinetics to hTREM2; settings: analyte hTREM2
Procedure: (§1) The binding of the TREM2/TfR-binding protein RS9.F6/3C35.21.17 to TREM2 and TfR was measured using SPR on a Biacore T200 instrument. To measure TfR binding, anti-human-Fab was immobilized on a CM5 chip, and the TREM2/TfR-binding protein was captured. Full-length human TfR or human TfR apical domain at serial dilution (e.g., concentrations of 1-1000 nM) was flowed over the chip (180 second association time) and then allowed to dissociate. Fitting was performed using a 1:1 binding model. To measure TREM2 binding, anti-human-Fc antibody was immobilized on a CM5 chip, and the TREM2/TfR-binding protein was captured. A range of concentrations of recombinant TREM2-His protein were flowed over the chip, and allowed to associate and dissociate. The resulting sensograms were fitted using a 1:1 Langmuir model to estimate kon and koff (FIG. 10).
The affinities of RS9.F6/3C35.21.17 for human TREM2 and TfR were determined by surface plasmon resonance using a Biacore™ T200. Biacore Series S CM5 sensor chips were immobilized with a mixture of two monoclonal mouse anti-Fab antibodies (Human Fab capture kit from GE Healthcare). Serial 3-fold dilutions of each antigen were injected at a flow rate of 30 μL/min. The binding of the antigens to captured antibody was monitored for 30 to 180 seconds and then their dissociation was monitored for 30-300 seconds in HBS-EP+running buffer (GE, # BR100669). Binding response was corrected by subtracting the RU from a blank flow cell. A 1:1 Languir model of simultaneous fitting of kon and koff was used for kinetics analysis.

[8] = tested on: hTfR apical domain; assay: Biacore T200 binding kinetics to hTfR apical domain; set-up: species or system human; settings: analyte hTfR apical domain
Procedure: as §1
The affinities of RS9.F6/3C35.21.17 for human TREM2 and TfR were determined by surface plasmon resonance using a Biacore™ T200. Biacore Series S CM5 sensor chips were immobilized with a mixture of two monoclonal mouse anti-Fab antibodies (Human Fab capture kit from GE Healthcare). Serial 3-fold dilutions of each antigen were injected at a flow rate of 30 μL/min. The binding of the antigens to captured antibody was monitored for 30 to 180 seconds and then their dissociation was monitored for 30-300 seconds in HBS-EP+running buffer (GE, # BR100669). […]

Molecule | STREM2 [1] | survival of human macrophages [2] | p-SYK signal [3] | pERK1/2 signal [3] | Bin by FACS [4] | Bin by Octet [5] | liposome mediated pSyk signaling after antibody pre-incubation [6] | ka [7] [M⁻¹ s⁻¹] | kd [7] [s⁻¹] | ka [8] [M⁻¹ s⁻¹] | kd [8] [s⁻¹]
54C2.A1: anti-TREM2 antibody clone; VH SEQ ID NO:22, VL SEQ ID NO:33 (antibody, V domains shown) VH: QVHLQQSGSELRSPGSSVKLSCKDFDSEVFPIAYMSWVRQKPGHGFEWIGDILPSIGRRIYGVKFEDKATLDADTVSNTAYLELNSLTSEDSAIYYCTRKDYGSLAYWGQGTLVTVSA VL: DVVMTQTPLSLPVSLGDQASISCRSSQSLVHINGNTYLQWYLQKPGQSPKLLIYKVSNRFSGVPDRFSGSGSGTDFTLRISRVEAEDLGVYFCSQSTHLPYTFGGGTKLEIK | NC | increased the survival | robust | robust | 1 | 1 | enhanced | – | – | – | –
RS9.F6/3C35.21.17_LALAPG: TREM2/TfR-binding protein: RS9.F6 Fabs on TfR-binding knob Fc and hole Fc; SEQ ID NOs:35, 91, 92 (protein) light: DVVMTQTPLSLPVSLGDQASISCRSSQSLVHNNGNTFLHWYLQKPGQSPKLLIYKVSNRFSGVPDRFSGSGSGTDFTLKISRVEAEDLGVYFCSQTTHVPPTFGGGTKLEIK heavy 1: QVQLQQPGAELVKPGASVKLSCKASGYTFTSYWMHWVKQSPGRGLEWIGRSDPTTGGTNYNEKFKTKATLTVDKPSSTAYMQLSSLTSDDSAVYYCVRTSGTGDYWGQGTSLTVSSASTKGPSVFPLAPSSKSTSGGTAALGCLVKDYFPEPVTVSWNSGALTSGVHTFPAVLQSSGLYSLSSVVTVPSSSLGTQTYICNVNHKPSNTKVDKKVEPKSCDKTHTCPPCPAPEAAGGPSVFLFPPKPKDTLMISRTPEVTCVVVDVSHEDPEVKFNWYVDGVEVHNAKTKPREEQYNSTYRVVSVLTVLHQDWLNGKEYKCKVSNKALGAPIEKTISKAKGQPREPQVYTLPPSRDELTKNQVSLWCLVKGFYPSDIAVLWESYGTEWASYKTTPPVLDSDGSFFLYSKLTVTKEEWQQGFVFSCSVMHEALHNHYTQKSLSLSPGK heavy 2: QVQLQQPGAELVKPGASVKLSCKASGYTFTSYWMHWVKQSPGRGLEWIGRSDPTTGGTNYNEKFKTKATLTVDKPSSTAYMQLSSLTSDDSAVYYCVRTSGTGDYWGQGTSLTVSSASTKGPSVFPLAPSSKSTSGGTAALGCLVKDYFPEPVTVSWNSGALTSGVHTFPAVLQSSGLYSLSSVVTVPSSSLGTQTYICNVNHKPSNTKVDKKVEPKSCDKTHTCPPCPAPEAAGGPSVFLFPPKPKDTLMISRTPEVTCVVVDVSHEDPEVKFNWYVDGVEVHNAKTKPREEQYNSTYRVVSVLTVLHQDWLNGKEYKCKVSNKALGAPIEKTISKAKGQPREPQVYTLPPSRDELTKNQVSLSCAVKGFYPSDIAVEWESNGQPENNYKTTPPVLDSDGSFFLVSKLTVDKSRWQQGNVFSCSVMHEALHNHYTQKSLSLSPGK | – | – | – | – | – | – | – | 150000 | 0.00038 | 1.7e+06 | 0.19
24B4.A1: anti-TREM2 antibody clone; VH SEQ ID NO:17, VL SEQ ID NO:28 (antibody, V domains shown) VH: QVHLQQSGSELRSPGSSVKLSCKDFDSEVFPISYMSWIRQKPGHGFEWIGDILPSIGGRIYGVKFEDRATLDADTVSNTAYLELNSLTSEDSAIYYCARKDYGSLAYWGQGTLVTVSA VL: DVVMTQTPLSLPVSLGDQASISCRSSQSLVHINGNTYLQWFLQKPGQSPKLLIYKVSNRFSGVPDRFSGSGSGTAFTLKISRVEAEDLGVYFCSQSTHVPYTFGGGTKLEIK | NC | increased the survival | robust | robust | 1 | 1 | – | – | – | – | –
